Reference: patent US20150118698A1

Biological target: monoclonal antibody NB206-15B6-F8, raised against MMCN-151 antigen
Assay: competitive ELISA on Biotin-… coated plate

OD (450-650), signal at full inhibition: 0.5 OD (450-650)
OD (450-650), signal without inhibition: 2 OD (450-650)
Binder: EDIEDGTFSK [synthetic free peptide … (MMCN-151)]
